T1: MERS-CoV (NCoV/Novel coronavirus) Spike Protein fragment (RBD, aa 367-606, His Tag) (Sino 40071-V08B1) (MERS-CoV, UniProt K9N5Q8 367-606)
T1 sequence: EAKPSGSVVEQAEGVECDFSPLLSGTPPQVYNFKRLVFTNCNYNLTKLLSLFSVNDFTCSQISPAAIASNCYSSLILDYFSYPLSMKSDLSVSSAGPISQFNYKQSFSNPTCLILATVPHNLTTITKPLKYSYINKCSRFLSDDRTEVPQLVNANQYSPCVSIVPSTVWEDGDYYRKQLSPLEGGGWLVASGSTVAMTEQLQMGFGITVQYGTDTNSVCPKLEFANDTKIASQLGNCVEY

T2: MERS-CoV Spike Protein S2 (aa 726-1296, His Tag) (Sino 40070-[change]) (MERS-CoV, UniProt K9N5Q8 726-1296)
T2 sequence: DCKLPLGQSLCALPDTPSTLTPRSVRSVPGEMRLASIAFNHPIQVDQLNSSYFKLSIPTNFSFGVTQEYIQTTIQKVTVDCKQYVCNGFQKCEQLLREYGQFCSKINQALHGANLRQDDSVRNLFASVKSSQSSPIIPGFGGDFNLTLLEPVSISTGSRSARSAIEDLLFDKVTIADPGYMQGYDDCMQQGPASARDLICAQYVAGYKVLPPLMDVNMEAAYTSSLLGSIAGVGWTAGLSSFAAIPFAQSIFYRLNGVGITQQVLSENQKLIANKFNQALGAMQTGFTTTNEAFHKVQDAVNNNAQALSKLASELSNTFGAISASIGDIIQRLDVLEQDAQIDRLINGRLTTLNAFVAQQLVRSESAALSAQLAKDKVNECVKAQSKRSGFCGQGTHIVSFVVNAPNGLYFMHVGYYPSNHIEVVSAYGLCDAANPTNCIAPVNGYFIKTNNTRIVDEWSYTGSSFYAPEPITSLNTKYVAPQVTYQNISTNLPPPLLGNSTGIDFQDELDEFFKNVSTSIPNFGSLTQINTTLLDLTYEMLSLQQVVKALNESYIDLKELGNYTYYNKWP

T3: MERS-CoV (NCoV/Novel coronavirus) Spike Protein S1 Protein (aa 1-725, His Tag) (Sino 40069-V08B1) (MERS-CoV, UniProt K9N5Q8 18-725)
T3 sequence: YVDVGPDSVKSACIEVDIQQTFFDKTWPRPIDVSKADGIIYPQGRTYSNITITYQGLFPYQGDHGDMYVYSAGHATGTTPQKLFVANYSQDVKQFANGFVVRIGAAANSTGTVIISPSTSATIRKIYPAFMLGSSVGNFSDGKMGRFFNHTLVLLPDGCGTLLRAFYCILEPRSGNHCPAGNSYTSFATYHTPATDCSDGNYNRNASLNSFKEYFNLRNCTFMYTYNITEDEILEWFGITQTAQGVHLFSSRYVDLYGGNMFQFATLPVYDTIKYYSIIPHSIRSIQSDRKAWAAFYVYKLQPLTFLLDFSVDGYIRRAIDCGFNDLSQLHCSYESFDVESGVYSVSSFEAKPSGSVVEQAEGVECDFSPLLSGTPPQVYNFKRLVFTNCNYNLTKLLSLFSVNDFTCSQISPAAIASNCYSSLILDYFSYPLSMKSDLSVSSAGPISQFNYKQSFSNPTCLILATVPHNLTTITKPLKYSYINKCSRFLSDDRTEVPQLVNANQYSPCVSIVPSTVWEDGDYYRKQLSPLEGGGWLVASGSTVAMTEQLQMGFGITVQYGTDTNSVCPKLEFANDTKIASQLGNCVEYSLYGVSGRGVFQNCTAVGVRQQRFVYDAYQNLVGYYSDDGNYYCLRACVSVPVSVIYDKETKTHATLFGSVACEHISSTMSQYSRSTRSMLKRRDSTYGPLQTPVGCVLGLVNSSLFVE

T4: MERS-CoV Spike Protein (ECD, aa 1-1297, His Tag) (Sino 40069-[change]) (MERS-CoV, UniProt K9N5Q8 18-1297)
T4 sequence: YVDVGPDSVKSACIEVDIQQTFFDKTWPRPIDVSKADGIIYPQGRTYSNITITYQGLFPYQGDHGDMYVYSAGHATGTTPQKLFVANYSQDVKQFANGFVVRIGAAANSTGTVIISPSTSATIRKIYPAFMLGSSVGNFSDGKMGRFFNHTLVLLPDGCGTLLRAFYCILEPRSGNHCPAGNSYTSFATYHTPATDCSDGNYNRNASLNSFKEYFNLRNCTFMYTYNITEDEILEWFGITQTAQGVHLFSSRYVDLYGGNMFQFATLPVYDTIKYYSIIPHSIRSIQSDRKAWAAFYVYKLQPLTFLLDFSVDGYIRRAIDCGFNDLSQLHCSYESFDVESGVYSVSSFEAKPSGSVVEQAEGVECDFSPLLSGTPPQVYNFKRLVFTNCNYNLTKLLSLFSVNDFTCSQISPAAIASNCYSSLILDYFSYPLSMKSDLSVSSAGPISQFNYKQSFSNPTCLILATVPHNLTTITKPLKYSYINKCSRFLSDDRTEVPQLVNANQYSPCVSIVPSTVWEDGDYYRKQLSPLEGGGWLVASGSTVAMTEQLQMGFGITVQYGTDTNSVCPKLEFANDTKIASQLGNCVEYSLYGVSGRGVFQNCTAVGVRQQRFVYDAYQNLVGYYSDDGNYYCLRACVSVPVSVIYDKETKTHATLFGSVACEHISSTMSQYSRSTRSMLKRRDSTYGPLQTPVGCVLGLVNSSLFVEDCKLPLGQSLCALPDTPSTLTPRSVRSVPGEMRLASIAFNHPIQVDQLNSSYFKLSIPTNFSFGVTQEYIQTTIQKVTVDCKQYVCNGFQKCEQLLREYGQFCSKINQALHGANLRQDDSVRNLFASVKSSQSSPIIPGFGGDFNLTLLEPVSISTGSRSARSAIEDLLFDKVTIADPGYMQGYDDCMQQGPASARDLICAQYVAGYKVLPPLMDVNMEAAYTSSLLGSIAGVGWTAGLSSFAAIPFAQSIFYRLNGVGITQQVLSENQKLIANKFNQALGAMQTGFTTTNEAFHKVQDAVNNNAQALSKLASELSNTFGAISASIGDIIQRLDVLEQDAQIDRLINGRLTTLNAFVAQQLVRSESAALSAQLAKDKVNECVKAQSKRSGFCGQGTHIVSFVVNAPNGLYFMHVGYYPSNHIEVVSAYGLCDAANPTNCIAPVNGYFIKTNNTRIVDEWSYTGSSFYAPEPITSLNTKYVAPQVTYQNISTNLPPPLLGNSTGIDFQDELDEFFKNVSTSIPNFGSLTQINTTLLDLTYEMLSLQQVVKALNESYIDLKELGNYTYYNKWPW

B1: mAb10985 (antibody, V domains shown)
VH: EVQLVESGGGLVQPGRSLRLSCAASGFTFDDYAMHWVRQAPGKGLEWVSGISWNRGSIGYADSVKGRFTISRDNAKNSLYLQMSSLRAEDTALYYCAKDGERWDSVVVPSARNGMDVWGQGTTVTVSS
VL: QSVLTQPPSVSGAPGQRVTISCTGSSSNIGAGYDVHWYQQLPGTAPKLLIYGNSNRPSGVPDRFSGSKSGTSASLAITGLQAEDEADYYCQSYDSSLSGSYVFGTGTKVTVLG
B2: mAb10913 (antibody, V domains shown)
VH: EVQLVESGGGLVQPGGSLRLSCAASGFTFRNYEMNWVRQAPGKGLEWVSYITSSGSTMYYADSVKGRFTISRDNAKNSLYLQMNSLRAEDTAVYYCARDGFYYYYAMDVWGQGTTVTVSS
VL: QSVLTQPPSVSAAPGQKVTISCSGSSSNIGNNYVSWYQQLPGTAPKLLIYDNNKRPSGIPDRFSGSKSGTSATLGITGLQTGDEADYYCGTWDSSLSVGRVFGTGTKVTVLG
B3: mAb10938 (antibody, V domains shown)
VH: EVQLVESGGGLVQPGGSLRLSCAVSGFTVSSNYMSWVRQAPGKGLEWVSLIYSGGSTFYADSVKGRFTISRHNSKNTLYLQMNSLRAEDTAVYYCAREGGYSYDYNYWGQGTLVTVSS
VL: DIQMTQSPSSLSASVGDRVTITCQASQDIRNYLNWYQQKPGKAPKLLIYDASNLETGVPSRFSGIGSGTDFTFTISSLQPEDIATYYCQQYDNLPITFGQGTRLEIKR
B4: mAb10930 (antibody, V domains shown)
VH: EVQLVESGGGLVQPGRSLRLSCAASGFTFDDYAMYWVRQAPGKGLEWVSGISWNSGSIGYADSVKGRFTISRDNAKNSLYLQMNSLRAADTALYYCAKDKDWNSRGYYYYGMDVWGQGTTVTVSS
VL: not shown
B5: mAb10923 (antibody, V domains shown)
VH: QVQLVQSGAEVKKPGASVKVSCKASGYTFINYYIHWVRQAPGQGLEWMGWINPNSGGTNYAQKFQGRVTMTRDTSISTAYMELSRLRSDDTAVYYCAIITIFGVVTWFDPWGQGTLVTVSS
VL: not shown
B6: mAb10936 (antibody, V domains shown)
VH: QVQLVESGGGVVQPGRSLRLSCAASGFTFRNYGMHWVRQAPGKGLEWVSVIWYDGSNRYYADSVKGRFTISRDTSKNTLYLQMNSLRAEDTAVYYCARDPPITGTTGGDAFDIWGQGTMVTVSS
VL: not shown
B7: mAb10937 (antibody, V domains shown)
VH: QITLKESGPTLVKPTQTLTLTCTFSGFSLSTNVVGVGWIRQPPGKALEWLALIYWNDDKRYSPSLKSRLTITKDTSKNQVVLTMTNMDPVDTATYYCAHGPTGDYFDYWGQGTLVTVSS
VL: not shown
B8: mAb10914 (antibody, V domains shown)
VH: EVQLVESGGGLVQPGGSLRLSCAASGLIVSRNYMIWVRQAPGKGLEWVSVIYSGGSTFYADSVKGRFTISRHNSKNTLYLQMNSLRAEDTAVYYCARDLGTGGMDVWGQGTTVTVSS
VL: DIQLTQSPSFLSASVGDRVTITCWASQGISSYLAWYQQKPGKAPKLLIYAASTLQSGVPSRFSGSGSGTEFTLTISSLQPEDFATYYCQQLNSYPLTFGGGTKVEIKR
B9: mAb10920 (antibody, V domains shown)
VH: QVQLVESGGGVVQPGRSLRLSCAASGFTFSYYGMHWVRQAPGKGLEWVAVIWYDGSNKFYADSVKGRFTISRDNSKNTLYLQMNSLRAEDTAVYYCAAARPGYYYGMDVWGQGTTVTVSS
VL: DIQMTQSPSSLSASVGDRVTITCRASQGISNYLAWFQQKPGKAPNSLIYAASSLQRGVPSKFSGSGSGTDFTLTISSLQPEDFATYYCQQYNSYPRTFGQGTKVEIKR

Molecular target: T1, MERS-CoV (NCoV/Novel coronavirus) Spike …
Assay: Luminex, supernatant

| Binder | MFI [MFI] |
| --- | --- |
| B1 | 31 |
| B2 | 34 |
| B3 | 25 |
| B4 | 27 |
| B5 | 37 |
| B6 | 29 |
| B7 | 27 |
| B8 | 31 |
| B9 | 39 |

Molecular target: T2, MERS-CoV Spike Protein S2 (aa 726-1296, …)
Assay: Luminex, supernatant

| Binder | MFI [MFI] |
| --- | --- |
| B1 | 28 |
| B2 | 26 |
| B3 | 19 |
| B4 | 20 |
| B5 | 36 |
| B6 | 21 |
| B7 | 26 |
| B8 | 28 |
| B9 | 30 |

Molecular target: SARS-CoV-2 Spike Protein (RBD)(R319-F541).hFc (SARS-CoV-2)
Assay: Luminex, supernatant

| Binder | MFI [MFI] |
| --- | --- |
| B1 | 31100 |
| B2 | 31900 |
| B3 | 29600 |
| B4 | 28900 |
| B5 | 37800 |
| B6 | 33900 |
| B7 | 34600 |
| B8 | 30500 |
| B9 | 36800 |

Molecular target: T3, MERS-CoV (NCoV/Novel coronavirus) Spike …
Assay: Luminex, supernatant

| Binder | MFI [MFI] |
| --- | --- |
| B1 | 22 |
| B2 | 26 |
| B3 | 20 |
| B4 | 22 |
| B5 | 25 |
| B6 | 20 |
| B7 | 22 |
| B8 | 23 |
| B9 | 27 |

Molecular target: Human SARS Coronavirus Spike S1 Subunit Protein (His Tag) (Sino 40150-V08B1) (Human SARS Coronavirus, UniProt P59594 14-667)
Assay: Luminex, supernatant

| Binder | MFI [MFI] |
| --- | --- |
| B1 | 22700 |
| B2 | 21 |
| B3 | 19 |
| B4 | 19 |
| B5 | 29 |
| B6 | 20 |
| B7 | 21 |
| B8 | 22 |
| B9 | 26 |

Molecular target: SARS-CoV-2 Spike Protein (RBD)(R319-F541).mFc (SARS-CoV-2)
Assay: Luminex, supernatant

| Binder | MFI [MFI] |
| --- | --- |
| B1 | 29400 |
| B2 | 33000 |
| B3 | 30500 |
| B4 | 28600 |
| B5 | 37400 |
| B6 | 33700 |
| B7 | 34200 |
| B8 | 30700 |
| B9 | 36400 |

Molecular target: T4, MERS-CoV Spike Protein (ECD, aa 1-1297, …)
Assay: Luminex, supernatant

| Binder | MFI [MFI] |
| --- | --- |
| B1 | 18 |
| B2 | 20 |
| B3 | 16 |
| B4 | 16 |
| B5 | 23 |
| B6 | 19 |
| B7 | 19 |
| B8 | 19 |
| B9 | 24 |

Source: US20240043504A1 (published 2024)
